According to IntAct's records for PubMed 21258410:

B1: Mothers against decapentaplegic homolog 7 (Homo sapiens), O15105 (parent)
chain: MFRTKRSALVRRLWRSRAPGGEDEEEGAGGGGGGGELRGEGATDSRAHGAGGGGPGRAGCCLGKAVRGAKGHHHPHPPAAGAGAAGGAEADLKALTHSVLKKLKERQLELLLQAVESRGGTRTACLLLPGRLDCRLGPGAPAGAQPAQPPSSYSLPLLLCKVFRWPDLRHSSEVKRLCCCESYGKINPELVCCNPHHLSRLCELESPPPPYSRYPMDFLKPTADCPDAVPSSAETGGTNYLAPGGLSDSQLLLEPGDRSHWCVVAYWEEKTRVGRLYCVQEPSLDIFYDLPQGNGFCLGQLNSDNKSQLVQKVRSKIGCGIQLTREVDGVWVYNRSSYPIFIKSATLDNPDSRTLLVHKVFPGFSIKAFDYEKAYSLQRPNDHEFMQQPWTGFTVQISFVKGWGQCYTRQFISSCPCWLEVIFNSR

Variants of: B1
Settings: with wwp2_human WWP2, O00308
Sequence of wwp2_human WWP2, O00308 (O00308 whole entry): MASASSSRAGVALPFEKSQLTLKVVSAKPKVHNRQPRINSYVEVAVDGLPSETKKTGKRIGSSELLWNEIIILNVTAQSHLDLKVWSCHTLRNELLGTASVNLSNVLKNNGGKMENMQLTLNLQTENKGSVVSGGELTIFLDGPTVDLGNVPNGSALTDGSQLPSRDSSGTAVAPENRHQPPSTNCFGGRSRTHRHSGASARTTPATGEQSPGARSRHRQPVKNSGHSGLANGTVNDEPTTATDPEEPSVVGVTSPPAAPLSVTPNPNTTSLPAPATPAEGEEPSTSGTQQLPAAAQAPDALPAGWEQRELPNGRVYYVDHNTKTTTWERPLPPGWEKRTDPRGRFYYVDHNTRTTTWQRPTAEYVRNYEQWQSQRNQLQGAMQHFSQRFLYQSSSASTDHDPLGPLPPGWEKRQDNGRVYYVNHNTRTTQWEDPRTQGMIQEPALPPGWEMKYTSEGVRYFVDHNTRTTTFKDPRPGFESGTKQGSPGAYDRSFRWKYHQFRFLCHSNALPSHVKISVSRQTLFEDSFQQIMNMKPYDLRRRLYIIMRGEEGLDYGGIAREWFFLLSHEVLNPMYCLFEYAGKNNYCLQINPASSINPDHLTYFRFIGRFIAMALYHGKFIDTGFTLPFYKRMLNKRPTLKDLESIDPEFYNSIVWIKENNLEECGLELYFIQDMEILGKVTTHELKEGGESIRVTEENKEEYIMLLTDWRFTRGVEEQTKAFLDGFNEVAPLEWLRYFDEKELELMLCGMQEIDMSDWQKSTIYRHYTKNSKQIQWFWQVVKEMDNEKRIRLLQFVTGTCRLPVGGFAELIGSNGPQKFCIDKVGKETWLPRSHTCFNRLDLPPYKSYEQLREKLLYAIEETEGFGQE

effect of a mutation on the interaction | Variant
disrupting interaction | P210G;Y211S
